Experiment [1] has as its target T1, human L1CAM on cells (human, UniProt P32004 20-1257).
T1 construct: Overexpressed on stably transfected HEK293T cells or endogenous on MCF-7 and MDA-MB-231 cells; also called HEK293T-hL1CAM
The experiment is described as follows: flow cytometry, MDA-MB-231 cells, AlexaFluor 647 anti-human Fc secondary. The method, then: (§1) Binding to L1CAM on Cells. […] Cells were then incubated with an AlexaFluor 647 goat anti-human Fc secondary antibody. After washing, the stained cells were analyzed by flow cytometry.
(§2) The binding curves for each antibody and cell line normalized to secondary antibody only staining (MFI ratio) are shown in FIGS. 14A-14C. EC50 values were determined by non-linear regression (Table 70). […] It is possible that differences in the conformation and oligomerization of L1CAM, depending on the surface expression level, contributed to the binding pattern. […] An avidity effect due to high levels of L1CAM surface expression may have contributed to the strong binding observed in this experiment.
For orientation: Flow cytometry measures light scatter and fluorescence of single cells or particles in a stream.

For experiment [2], the target named is T2, human CHL-1 (residues 25-1096 with a C-terminal 10xHis tag) (human, UniProt O00533 25-1096).
T2 construct: range 25-1096; also called L1CAM-2; L1CAM2
T2 sequence: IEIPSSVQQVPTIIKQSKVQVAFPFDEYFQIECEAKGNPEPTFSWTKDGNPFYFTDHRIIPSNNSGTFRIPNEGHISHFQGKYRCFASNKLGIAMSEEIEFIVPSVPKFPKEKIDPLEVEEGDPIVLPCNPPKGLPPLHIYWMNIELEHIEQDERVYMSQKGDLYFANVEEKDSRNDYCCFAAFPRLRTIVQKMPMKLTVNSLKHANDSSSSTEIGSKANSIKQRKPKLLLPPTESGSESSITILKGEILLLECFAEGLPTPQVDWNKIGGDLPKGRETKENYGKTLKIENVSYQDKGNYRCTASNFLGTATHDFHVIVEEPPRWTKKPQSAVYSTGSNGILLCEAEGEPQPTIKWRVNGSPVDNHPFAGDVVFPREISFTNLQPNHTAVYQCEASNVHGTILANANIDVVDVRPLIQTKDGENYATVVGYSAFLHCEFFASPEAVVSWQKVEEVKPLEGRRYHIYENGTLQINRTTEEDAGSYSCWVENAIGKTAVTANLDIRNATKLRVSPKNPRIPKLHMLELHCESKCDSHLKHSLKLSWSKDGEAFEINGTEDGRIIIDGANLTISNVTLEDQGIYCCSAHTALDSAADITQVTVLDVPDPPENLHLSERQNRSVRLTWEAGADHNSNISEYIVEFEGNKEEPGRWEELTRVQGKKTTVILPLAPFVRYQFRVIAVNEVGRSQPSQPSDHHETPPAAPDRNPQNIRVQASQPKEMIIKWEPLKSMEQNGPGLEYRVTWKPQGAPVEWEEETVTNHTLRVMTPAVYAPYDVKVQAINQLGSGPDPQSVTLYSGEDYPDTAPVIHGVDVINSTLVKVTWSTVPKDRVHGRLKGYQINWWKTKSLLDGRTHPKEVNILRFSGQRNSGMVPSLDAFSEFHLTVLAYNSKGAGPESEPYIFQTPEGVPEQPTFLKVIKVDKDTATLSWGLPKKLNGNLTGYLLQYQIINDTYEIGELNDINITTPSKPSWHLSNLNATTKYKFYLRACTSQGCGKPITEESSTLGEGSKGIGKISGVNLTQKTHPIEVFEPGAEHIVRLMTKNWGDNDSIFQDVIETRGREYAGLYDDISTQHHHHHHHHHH
The experiment is described as follows: ELISA, plates coated with human CHL-1. The source says:
Selectivity. […] These proteins are other members of the L1 family of cell adhesion proteins and have between 49% and 55% sequence similarity with L1CAM in the extracellular portion. […] Positive control antibodies were included for each homolog. […] Epitope. The extracellular portion of L1CAM contains six immunoglobulin-like (Ig) domains and five fibronectin type III (FN) domains. To narrow down the binding region of the development candidate mAbs, truncated versions of human L1CAM protein (Ig domain, residues 21-605; FN domain, residues 606-1116; each with a C-terminal 6×His tag) were recombinantly produced, followed by a BLI experiment to test binding at 50 and 100 nM. […] 6×His tag is set forth in SEQ ID NO: 316.
In general terms: ELISA stands for enzyme-linked immunosorbent assay.

Experiment [3] has as its target T3, soluble mouse L1CAM (monomer), His-tagged (mouse, UniProt P11627 20-1123, limits assumed).
T3 construct: read as mouse
The experiment is described as follows: BLI, mouse against human L1CAM-His. Here is the method:
Cross-reactivity to Mouse L1CAM. Affinity to mouse L1CAM was measured by BLI using an Octet Red96e instrument. […] The data was prepared by reference well subtraction, and response curves were globally fit to a 1:1 Langmuir binding model.
(In general: BLI is a label-free optical method that tracks binding on a fibre tip over time.)

In experiment [4] the target is T1, human L1CAM on cells. The experiment is described as follows: flow cytometry, HEK293T-hL1CAM cells, AlexaFluor 647 anti-human Fc secondary. The method, then:
as §1, §2

Experiment [5] deals with T1, human L1CAM on cells. The experiment is described as follows: summary table; binding to cells with endogenous L1CAM (MDA-MB-231). The method, then:
as §1, §2

Experiment [6] addresses T4, mouse L1CAM on transiently transfected HEK293FT cells (mouse, UniProt P11627 20-1260).
T4 construct: whole, on cells; also called mouse L1CAM on cells
The experiment can be described thus: flow cytometry, HEK293FT cells transiently transfected with mouse L1CAM (data not shown).

The target of experiment [7] is T1, human L1CAM on cells. The experiment can be described thus: flow cytometry, MCF-7 cells, AlexaFluor 647 anti-human Fc secondary. Here is the method: as §1, §2

Results on one molecule are retold here after patent publication US20250340636A1 (Memorial Sloan Kettering, published 2025).

T1 sequence (P32004 20-1257): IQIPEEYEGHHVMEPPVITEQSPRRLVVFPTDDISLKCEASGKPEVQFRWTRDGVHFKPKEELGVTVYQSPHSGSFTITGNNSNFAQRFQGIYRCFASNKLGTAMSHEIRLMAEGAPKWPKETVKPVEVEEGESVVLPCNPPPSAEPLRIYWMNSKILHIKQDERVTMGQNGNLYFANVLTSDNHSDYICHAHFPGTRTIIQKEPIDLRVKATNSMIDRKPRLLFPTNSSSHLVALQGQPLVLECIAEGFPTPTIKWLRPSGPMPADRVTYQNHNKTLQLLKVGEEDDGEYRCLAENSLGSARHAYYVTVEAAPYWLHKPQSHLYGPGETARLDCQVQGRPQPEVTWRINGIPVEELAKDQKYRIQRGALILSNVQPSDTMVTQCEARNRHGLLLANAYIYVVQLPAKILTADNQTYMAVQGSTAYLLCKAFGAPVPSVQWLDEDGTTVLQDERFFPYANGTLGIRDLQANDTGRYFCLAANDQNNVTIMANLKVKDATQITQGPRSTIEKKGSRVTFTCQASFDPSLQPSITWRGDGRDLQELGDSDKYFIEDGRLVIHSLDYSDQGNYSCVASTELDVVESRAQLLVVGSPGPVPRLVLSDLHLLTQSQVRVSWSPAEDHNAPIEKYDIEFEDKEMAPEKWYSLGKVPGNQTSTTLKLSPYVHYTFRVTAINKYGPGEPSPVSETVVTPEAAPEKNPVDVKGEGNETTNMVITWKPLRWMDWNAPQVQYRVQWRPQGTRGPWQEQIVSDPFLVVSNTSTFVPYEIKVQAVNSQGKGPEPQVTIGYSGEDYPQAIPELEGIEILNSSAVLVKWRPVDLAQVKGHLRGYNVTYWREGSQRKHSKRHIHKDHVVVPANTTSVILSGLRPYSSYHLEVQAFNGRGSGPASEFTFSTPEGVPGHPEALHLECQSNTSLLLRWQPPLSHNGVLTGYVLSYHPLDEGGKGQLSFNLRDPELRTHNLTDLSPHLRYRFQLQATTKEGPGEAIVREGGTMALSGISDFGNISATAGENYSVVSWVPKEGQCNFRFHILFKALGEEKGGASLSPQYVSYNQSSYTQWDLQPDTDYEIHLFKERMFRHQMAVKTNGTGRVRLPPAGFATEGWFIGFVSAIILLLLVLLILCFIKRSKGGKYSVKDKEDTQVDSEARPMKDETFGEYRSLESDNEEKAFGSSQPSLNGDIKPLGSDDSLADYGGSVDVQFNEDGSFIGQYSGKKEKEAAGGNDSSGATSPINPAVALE
T4 sequence (P11627 20-1260): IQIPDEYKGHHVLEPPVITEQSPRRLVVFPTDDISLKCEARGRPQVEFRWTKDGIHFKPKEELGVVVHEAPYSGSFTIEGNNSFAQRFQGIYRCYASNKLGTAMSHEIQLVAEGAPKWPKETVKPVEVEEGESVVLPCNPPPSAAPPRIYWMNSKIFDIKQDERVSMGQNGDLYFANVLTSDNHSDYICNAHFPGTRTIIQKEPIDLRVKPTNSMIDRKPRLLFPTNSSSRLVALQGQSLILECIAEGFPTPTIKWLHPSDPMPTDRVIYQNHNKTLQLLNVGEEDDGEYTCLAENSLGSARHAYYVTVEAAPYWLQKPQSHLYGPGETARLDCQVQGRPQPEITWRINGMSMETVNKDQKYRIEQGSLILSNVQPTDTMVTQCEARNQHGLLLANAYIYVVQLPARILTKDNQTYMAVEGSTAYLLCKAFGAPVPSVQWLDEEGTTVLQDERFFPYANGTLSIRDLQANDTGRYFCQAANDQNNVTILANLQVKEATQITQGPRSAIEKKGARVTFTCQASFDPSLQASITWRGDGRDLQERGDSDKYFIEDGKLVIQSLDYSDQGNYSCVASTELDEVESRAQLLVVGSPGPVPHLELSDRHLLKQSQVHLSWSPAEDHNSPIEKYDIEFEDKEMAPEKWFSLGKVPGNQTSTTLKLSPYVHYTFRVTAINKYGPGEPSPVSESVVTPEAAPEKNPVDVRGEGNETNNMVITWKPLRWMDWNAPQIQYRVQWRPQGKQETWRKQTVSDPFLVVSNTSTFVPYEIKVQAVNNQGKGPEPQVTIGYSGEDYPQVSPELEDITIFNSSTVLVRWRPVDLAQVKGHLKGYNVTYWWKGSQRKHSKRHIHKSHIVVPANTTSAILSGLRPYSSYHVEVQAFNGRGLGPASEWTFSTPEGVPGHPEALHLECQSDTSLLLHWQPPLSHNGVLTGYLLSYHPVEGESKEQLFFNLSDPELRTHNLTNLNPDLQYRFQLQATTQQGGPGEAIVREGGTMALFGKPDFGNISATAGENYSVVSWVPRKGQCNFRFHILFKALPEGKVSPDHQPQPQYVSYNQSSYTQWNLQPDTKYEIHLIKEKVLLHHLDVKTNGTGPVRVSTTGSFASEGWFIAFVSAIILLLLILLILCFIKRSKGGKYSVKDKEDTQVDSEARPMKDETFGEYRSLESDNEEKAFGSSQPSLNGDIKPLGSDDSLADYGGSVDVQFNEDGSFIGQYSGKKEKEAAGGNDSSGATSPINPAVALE
T3 sequence (P11627 20-1123 limits assumed): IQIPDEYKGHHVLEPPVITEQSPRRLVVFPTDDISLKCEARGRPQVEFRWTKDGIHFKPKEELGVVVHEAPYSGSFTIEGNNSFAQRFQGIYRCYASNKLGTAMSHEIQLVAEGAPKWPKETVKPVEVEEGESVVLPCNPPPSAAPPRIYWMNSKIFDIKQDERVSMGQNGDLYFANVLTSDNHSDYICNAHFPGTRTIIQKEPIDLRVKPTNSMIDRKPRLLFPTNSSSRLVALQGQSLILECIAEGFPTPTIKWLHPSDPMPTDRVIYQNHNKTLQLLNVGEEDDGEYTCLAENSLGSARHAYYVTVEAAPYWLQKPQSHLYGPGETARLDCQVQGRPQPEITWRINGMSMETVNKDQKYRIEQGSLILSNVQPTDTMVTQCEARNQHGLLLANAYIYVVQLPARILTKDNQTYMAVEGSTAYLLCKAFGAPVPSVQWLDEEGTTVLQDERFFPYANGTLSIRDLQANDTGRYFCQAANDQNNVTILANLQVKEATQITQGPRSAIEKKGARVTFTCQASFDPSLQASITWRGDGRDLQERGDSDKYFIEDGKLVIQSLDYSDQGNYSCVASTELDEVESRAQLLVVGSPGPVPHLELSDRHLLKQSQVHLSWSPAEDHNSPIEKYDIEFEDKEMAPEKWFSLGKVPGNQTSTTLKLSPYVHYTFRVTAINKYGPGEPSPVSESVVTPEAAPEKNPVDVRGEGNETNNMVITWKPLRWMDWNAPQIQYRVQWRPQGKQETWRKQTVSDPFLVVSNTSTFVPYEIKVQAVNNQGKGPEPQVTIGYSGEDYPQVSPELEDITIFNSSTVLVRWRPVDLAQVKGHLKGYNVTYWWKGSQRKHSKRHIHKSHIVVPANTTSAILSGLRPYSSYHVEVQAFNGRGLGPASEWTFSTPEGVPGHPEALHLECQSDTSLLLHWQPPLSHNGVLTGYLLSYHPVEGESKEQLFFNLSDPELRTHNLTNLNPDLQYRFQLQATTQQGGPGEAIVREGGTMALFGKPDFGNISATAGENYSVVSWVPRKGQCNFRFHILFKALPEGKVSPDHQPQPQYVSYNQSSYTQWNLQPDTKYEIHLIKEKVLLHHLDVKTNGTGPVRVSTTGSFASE

B1: TDI-Y-005 (antibody, human IgG1, kappa, V domains shown)
VH: EVQMVESGGGLVQPGGSLRLSCAAPGFIFSSYNMNWVRQAPGKGLEWVSYISSSSSTTYYADSVKGRFTISRDNAKNSLYLQMNSLRDEDTAVYYCASLYSGYDYYYYYGMDVWGQGTTVTVSS
VL: DIVMTQTPLSSPVSLGQPASISCRSSQSLVHSDGNTYLSWLQQRPGQPPRVLIYKISKRFSGVPDRFSGSGAGTDFTLKISRVEAEDVGVYYCMQATQFPFTFGPGTKVDIKR
notes: Human IgG1, kappa; also called human 14A10 mAb; fully human 14A10 mAb
Broadly, the EC50 is the concentration needed to bring the measured effect to its halfway point. Consider B1, for which the EC50 in experiment [1] turned out to be 7.1 nM; in experiment [4], 2 nM; in experiment [5], 7.1 nM; in experiment [6] it was 0.9 nM; in experiment [7], 2.5 nM. Further, in experiment [2], the binding result is reported as “no binding (tested: 1 µM)”. In experiment [3], the “fold difference of KD against human L1CAM” value was no more than 8 fold.
